Experimental data from publication PMC6149950, “Designability of Aromatic Interaction Networks at E. coli Bacterioferritin B-Type Channels” (Molecules : A Journal of Synthetic Chemistry and Natural …, 2017).

B1: bacterioferritin from E. coli (BFR) mutant N34W (natural protein)
chain: not shown
notes: bacterioferritin (BFR), E. coli, with N34W; made by site-directed mutagenesis of wild-type BFR in pET32 Ek/LIC
B2: bacterioferritin from E. coli (BFR) double mutant D132W/N34W (natural protein)
chain: not shown
notes: bacterioferritin (BFR), E. coli, with D132W and N34W; made by site-directed mutagenesis of wild-type BFR in pET32 Ek/LIC

Target: the molecule itself
Experiment: SEC; Superdex 200 10/300 GL, 50 mM NaH2PO4, 150 mM NaCl, pH 7.0, 4 °C, 0.5 mL/min; column calibrated with six standard proteins; self-assembly of dimers into the 24-mer cage

Protein	stoichiometry N
B1	2
B2	2
